Results: patent US20050181995A1 (NEC SOFT, published 2005)
Numbering of substitutions follows the chain as printed.

T1: Flt-4 (VEGF receptor type 3) (UniProt P35916 25-776)
T1 construct: Immobilised on CM5 chip; printed without an IgG suffix; also called VEGF receptor 3
T1 sequence: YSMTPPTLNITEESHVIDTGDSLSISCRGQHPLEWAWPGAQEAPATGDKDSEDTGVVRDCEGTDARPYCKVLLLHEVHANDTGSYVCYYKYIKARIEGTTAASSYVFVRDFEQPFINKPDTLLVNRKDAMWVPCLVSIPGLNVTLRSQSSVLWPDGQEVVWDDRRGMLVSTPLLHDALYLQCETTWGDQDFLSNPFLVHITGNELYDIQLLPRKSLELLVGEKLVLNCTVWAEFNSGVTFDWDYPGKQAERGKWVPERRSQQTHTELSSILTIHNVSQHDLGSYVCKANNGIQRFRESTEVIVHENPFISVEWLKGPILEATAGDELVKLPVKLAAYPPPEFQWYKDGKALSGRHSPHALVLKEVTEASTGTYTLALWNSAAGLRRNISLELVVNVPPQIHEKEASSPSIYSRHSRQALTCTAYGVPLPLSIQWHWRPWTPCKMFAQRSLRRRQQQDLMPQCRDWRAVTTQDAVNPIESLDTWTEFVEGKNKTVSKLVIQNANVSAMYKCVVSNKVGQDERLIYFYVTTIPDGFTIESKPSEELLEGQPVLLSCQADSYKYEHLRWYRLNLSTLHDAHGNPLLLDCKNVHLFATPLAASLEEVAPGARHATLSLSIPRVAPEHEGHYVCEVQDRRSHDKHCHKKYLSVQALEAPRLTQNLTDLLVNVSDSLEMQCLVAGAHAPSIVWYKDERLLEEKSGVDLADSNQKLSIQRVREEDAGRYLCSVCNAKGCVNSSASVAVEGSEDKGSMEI

B1: vammin (VEGF-like protein purified from the venom of Vipera ammodytes ammodytes) (ligand)
chain: EVRPFLEVHERSACQARETLVPILQEYPDEISDIFRPSCVAVLRCSGCCTDESLKCTPVGKHTVDLQIMRVNPRTQSSKMEVMKFTEHTACECRPRRKQGEPDGPKEKPR
modifications: pyrrolidone ring at N-terminus (opened with methanol-hydrochloric acid for sequencing)
notes: also called vammin protein
B2: HF (hypotensive factor from the venom of Vipera aspis aspis) (ligand)
chain: B1 chain with P22S
notes: also called HF protein
B3: VR-1 (VEGF-like protein purified from the venom of Daboia russelli russelli) (ligand)
chain: EVRPFLDVYQRSACQTRETLVSILQEHPDEISDIFRPSCVAVLRCSGCCTDESMKCTPVGKHTADIQIMRMNPRTHSSKMEVMKFMEHTACECRPRWKQGEPEGPKEPR
modifications: pyrrolidone ring at N-terminus (opened with methanol-hydrochloric acid for sequencing)
notes: also called VR-1 protein

Key:
KDR-IgG [1] = target: T2, KDR-IgG (UniProt P35968 20-764); experiment: SPR (BIAcore 3000), KDR-IgG immobilised on CM5 chip; kdiss/kass
T2 construct: Immobilised on CM5 chip by amine coupling; also called KDR-lgG; VEGF receptor 2; not shown: IgG part of the fusion

[2] = target: T1, Flt-4 (VEGF receptor type 3); experiment: SPR (BIAcore 3000), receptor immobilised on CM5 chip
KDR-IgG [3] = target: T2, KDR-IgG; experiment: SPR (BIAcore 3000), KDR-IgG immobilised on CM5 chip
Procedure: An apparatus for measurement based on surface plasmon resonance technique: BlAcore 3000 (Biosensor) was used to evaluate the properties of binding to and dissociation from a VEGF receptor as for a VEGF-like protein. Experiment for analysis of the receptor binding was conducted at 25° C. using an HBS buffer (10 mM HEPES, pH 7.4, 150 mM NaCl, 3 mM EDTA, 0.005% polysorbate 20). Flt-1-lgG and KDR-lgG were immobilized on a CM5 sensor chip using an amine coupling kit (Biosensor), respectively.
They were injected into a flow cell at a flow rate of 20 μL/min. A signal from a blank flow channel as a negative control was subtracted as a background signal from the signal from the sample flow channel, for background correction. In the association process, while injecting a solution with the above protein concentration on the sensor chip at the above flow rate, increase in the resonance signal was detected. In the dissociation process, while injecting the above buffer on the sensor chip at the above flow rate, decrease in the resonance signal was measured.
A rate constant for association (kₐₛₛ), a rate constant for dissociation (kdiss) and the maximum binding amount (Rₘₐₓ) for binding to a VEGF receptor in each VEGF-like protein were calculated using a BIA evaluation 3.1 curve fitting software (Biosensor). An apparent dissociation constant (Kd) was calculated as a ratio of the rate constants (kdiss/kₐₛₛ) from the calculated values.

Flt-1-IgG = target: T3, Flt-1-IgG (UniProt P17948 27-687); experiment: SPR (BIAcore 3000), receptor-IgG immobilised on CM5 chip
T3 construct: Immobilised on CM5 chip by amine coupling; also called Flt-1-lgG; Flt-1-lg; not shown: IgG part of the fusion
T3 sequence (P17948 other isoform, or with tags, fused parts or gaps limits assumed): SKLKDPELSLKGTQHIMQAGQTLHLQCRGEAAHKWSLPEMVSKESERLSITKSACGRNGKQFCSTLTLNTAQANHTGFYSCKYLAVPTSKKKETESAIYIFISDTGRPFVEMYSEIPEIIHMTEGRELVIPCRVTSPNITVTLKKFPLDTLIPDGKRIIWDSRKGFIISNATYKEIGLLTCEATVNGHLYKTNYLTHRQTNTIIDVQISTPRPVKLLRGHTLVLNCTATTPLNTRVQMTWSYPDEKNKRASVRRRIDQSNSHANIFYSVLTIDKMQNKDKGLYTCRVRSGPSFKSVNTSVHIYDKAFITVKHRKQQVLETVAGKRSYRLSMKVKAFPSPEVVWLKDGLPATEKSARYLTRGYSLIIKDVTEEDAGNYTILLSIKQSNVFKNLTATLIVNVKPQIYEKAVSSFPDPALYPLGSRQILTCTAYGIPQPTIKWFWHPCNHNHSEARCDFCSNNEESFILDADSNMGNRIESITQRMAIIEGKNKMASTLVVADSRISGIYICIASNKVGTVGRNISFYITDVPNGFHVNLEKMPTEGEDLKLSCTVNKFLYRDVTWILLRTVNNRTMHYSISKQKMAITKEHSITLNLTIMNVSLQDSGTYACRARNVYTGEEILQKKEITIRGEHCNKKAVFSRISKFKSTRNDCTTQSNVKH

T2 sequence (P35968 20-764 limits assumed): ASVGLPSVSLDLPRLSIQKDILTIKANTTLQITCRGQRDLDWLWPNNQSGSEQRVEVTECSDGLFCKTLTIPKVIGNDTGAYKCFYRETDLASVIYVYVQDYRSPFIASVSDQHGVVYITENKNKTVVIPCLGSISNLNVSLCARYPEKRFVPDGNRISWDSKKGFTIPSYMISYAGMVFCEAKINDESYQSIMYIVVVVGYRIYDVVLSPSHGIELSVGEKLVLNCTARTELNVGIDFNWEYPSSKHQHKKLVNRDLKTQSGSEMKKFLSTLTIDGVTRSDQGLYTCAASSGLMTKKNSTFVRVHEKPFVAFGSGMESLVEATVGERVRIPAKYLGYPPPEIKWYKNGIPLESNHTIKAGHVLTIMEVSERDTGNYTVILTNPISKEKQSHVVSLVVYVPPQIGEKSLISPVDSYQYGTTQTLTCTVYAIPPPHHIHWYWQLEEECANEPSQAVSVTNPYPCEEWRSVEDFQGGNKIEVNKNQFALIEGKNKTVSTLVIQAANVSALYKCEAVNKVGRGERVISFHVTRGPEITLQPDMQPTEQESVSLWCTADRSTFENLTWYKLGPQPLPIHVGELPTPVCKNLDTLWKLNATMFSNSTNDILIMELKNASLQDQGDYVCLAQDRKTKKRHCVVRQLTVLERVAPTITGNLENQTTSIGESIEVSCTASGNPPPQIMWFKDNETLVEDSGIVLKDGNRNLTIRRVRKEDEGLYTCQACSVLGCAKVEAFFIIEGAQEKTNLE

Row | Binder | Kd (KDR-IgG [1]) [nM] | binding result [2] | koff (KDR-IgG [3]) [s⁻¹] | kon (KDR-IgG [3]) [M⁻¹ s⁻¹] | binding result (Flt-1-IgG)
1 | B1 | 0.411 | no binding (tested: 500 nM) | 4.6e-06 | 11200 | no binding (tested: 3, 10 and 30 nM)
2 | B2 | 0.334 | – | 9.6e-06 | 28800 | no binding (tested: 3, 10 and 30 nM)
3 | B3 | 0.332 | – | 1.29e-05 | 39000 | no binding (tested: 3, 10 and 30 nM)
